Measured values: patent US20210130436A1
Substitutions are numbered along the chain they refer to. In names and notes the source's numbering stands. Blank lines part the entries; values can stand above or below the binder they belong to.

Target: PD-1 (PDCD1) (Homo sapiens (Human)) (UniProt Q15116)
Experiment: cell-based or functional assay

Chain of PD-1 (PDCD1) (Homo sapiens (Human)) (Q15116 21-288): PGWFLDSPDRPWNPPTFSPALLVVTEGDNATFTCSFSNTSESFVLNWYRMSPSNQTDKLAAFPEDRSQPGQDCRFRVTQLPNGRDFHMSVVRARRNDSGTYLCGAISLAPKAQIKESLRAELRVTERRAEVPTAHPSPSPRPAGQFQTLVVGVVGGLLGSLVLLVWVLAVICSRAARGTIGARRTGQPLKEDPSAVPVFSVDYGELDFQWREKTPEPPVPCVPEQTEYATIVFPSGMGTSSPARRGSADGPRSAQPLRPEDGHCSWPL

- IFN gamma levels pg/mL (MLR): 1780 pg/mL
B1: PD-L2 G28V/Q72H/R76G/I86T IgV-Fc (Fc fusion, not shown: a dimerising Fc or GST)
chain: LFTVTVPKELYIIEHGSNVTLECNFDTVSHVNLGAITASLQKVENDTSPHRERATLLEEQLPLGKASFHIPHVQVGDEGQYQCIITYGVAWDYKYLTLKVKA

- IFN gamma levels pg/mL (MLR): 1600 pg/mL
B2: PD-L2 H15Q/T47A/Q72H/R76G/I86T IgV-Fc (Fc fusion, not shown: a dimerising Fc or GST)
chain: B1 chain with H15Q, V28G, T47A

- IFN gamma levels pg/mL (MLR): 1070 pg/mL
B3: PD-L2 H15Q/N18D/T47A/Q72H/V73A/R76G/I86T/V89D IgV-Fc (Fc fusion, not shown: a dimerising Fc or GST)
chain: B1 chain with H15Q, N18D, V28G, T47A, V73A, V89D

- IFN gamma levels pg/mL (MLR): 941 pg/mL
B4: PD-L2 H15Q/S39I/E44D/Q72H/V75G/R76G/Q82R/V89D IgV-Fc (Fc fusion, not shown: a dimerising Fc or GST)
chain: B1 chain with H15Q, V28G, S39I, E44D, V75G, Q82R, T86I, V89D

- IFN gamma levels pg/mL (MLR): 1230 pg/mL
B5: PD-L2 H15Q/S39I/S67L/V89D IgV-Fc (Fc fusion, not shown: a dimerising Fc or GST)
chain: B1 chain with H15Q, V28G, S39I, S67L, H72Q, G76R, T86I, V89D

- IFN gamma levels pg/mL (MLR): 1620 pg/mL
B6: PD-L2 Q82R/V89D IgV-Fc (Fc fusion, not shown: a dimerising Fc or GST)
chain: B1 chain with V28G, H72Q, G76R, Q82R, T86I, V89D

- IFN gamma levels pg/mL (MLR): 1100 pg/mL
B7: PD-L2 H15Q/T47A/S67L/R76G/Q82R/V89D IgV-Fc (Fc fusion, not shown: a dimerising Fc or GST)
chain: B1 chain with H15Q, V28G, T47A, S67L, H72Q, Q82R, T86I, V89D

- IFN gamma levels pg/mL (MLR): 1200 pg/mL
B8: PD-L2 H15Q/T47A/S67L/Q82R/V89D IgV-Fc (Fc fusion, not shown: a dimerising Fc or GST)
chain: B1 chain with H15Q, V28G, T47A, S67L, H72Q, G76R, Q82R, T86I, V89D

- IFN gamma levels pg/mL (MLR): 936 pg/mL
B9: PD-L2 I13V/S39I/E44D/Q82R/V89D IgV-Fc (Fc fusion, not shown: a dimerising Fc or GST)
chain: B1 chain with I13V, V28G, S39I, E44D, H72Q, G76R, Q82R, T86I, V89D

- IFN gamma levels pg/mL (MLR): 1730 pg/mL
B10: PD-L2 H15Q/T47A/H69L/Q82R/V89D IgV-Fc (Fc fusion, not shown: a dimerising Fc or GST)
chain: B1 chain with H15Q, V28G, T47A, H69L, H72Q, G76R, Q82R, T86I, V89D

- IFN gamma levels pg/mL (MLR): 1640 pg/mL
B11: PD-L2 H15Q/T47A IgV-Fc (Fc fusion, not shown: a dimerising Fc or GST)
chain: B1 chain with H15Q, V28G, T47A, H72Q, G76R, T86I

- IFN gamma levels pg/mL (MLR): 1560 pg/mL
B12: PD-L2 E44D/V89D/W91R IgV-Fc (Fc fusion, not shown: a dimerising Fc or GST)
chain: B1 chain with V28G, E44D, H72Q, G76R, T86I, V89D, W91R

- IFN gamma levels pg/mL (MLR): 934 pg/mL
B13: PD-L2 H15Q/Q72H/Q74R/R76G/I86T IgV-Fc (Fc fusion, not shown: a dimerising Fc or GST)
chain: B1 chain with H15Q, V28G, Q74R

- IFN gamma levels pg/mL (MLR): 1750 pg/mL
B14: PD-L2 I13V/H15Q/T37A/E44D/S48C/S67L/Q82R/V89D IgV-Fc (Fc fusion, not shown: a dimerising Fc or GST)
chain: LFTVTVPKELYIVEQGSNVTLECNFDTGSHVNLGAIAASLQKVDNDTCPHRERATLLEEQLPLGKALFHIPQVQVRDEGQYRCIIIYGDAWDYKYLTLKVKA

- IFN gamma levels pg/mL (MLR): 1090 pg/mL
B15: PD-L2 I13V/H15Q/T47A/Q72H/R76G/I86T IgV-Fc (Fc fusion, not shown: a dimerising Fc or GST)
chain: B1 chain with I13V, H15Q, V28G, T47A

- IFN gamma levels pg/mL (MLR): 1020 pg/mL
B16: PD-L2 S67L/I86T IgV-Fc (Fc fusion, not shown: a dimerising Fc or GST)
chain: B1 chain with V28G, S67L, H72Q, G76R

- IFN gamma levels pg/mL (MLR): 1090 pg/mL
B17: PD-L2 H15Q/N24S/T47A/Q72H/R76G/V89D IgV-Fc (Fc fusion, not shown: a dimerising Fc or GST)
chain: B1 chain with H15Q, N24S, V28G, T47A, T86I, V89D

- IFN gamma levels pg/mL (MLR): 836 pg/mL
B18: PD-L2 I13V/H15Q/T47A/E58G/S67L/Q82R/V89D IgV-Fc (Fc fusion, not shown: a dimerising Fc or GST)
chain: B14 chain with A37T, D44E, T47A, C48S, E58G

- IFN gamma levels pg/mL (MLR): 1190 pg/mL
B19: PD-L2 I13V/H15Q/R76G/D77N/Q82R/V89D IgV-Fc (Fc fusion, not shown: a dimerising Fc or GST)
chain: B14 chain with A37T, D44E, C48S, L67S, R76G, D77N

- IFN gamma levels pg/mL (MLR): 1260 pg/mL
B20: PD-L2 I13V/H15Q/S39I/E44D/S67L IgV-Fc (Fc fusion, not shown: a dimerising Fc or GST)
chain: B14 chain with A37T, S39I, C48S, R82Q, D89V

- IFN gamma levels pg/mL (MLR): 1250 pg/mL
B21: PD-L2 I13V/H15Q/T47A/R76G/V89D IgV-Fc (Fc fusion, not shown: a dimerising Fc or GST)
chain: B1 chain with I13V, H15Q, V28G, T47A, H72Q, T86I, V89D
